Results reported in patent publication US20150025225A1 (SHIONOGI, published 2015).
Where two headings read alike, the source gives them in different places.

T1: human EL[331-459]-mouse EL-C2 tag (human/mouse chimera, UniProt Q9WVG5 21-500 (mouse entry))
T1 construct: used as heparin extract of transfected HEK293F cells; also called human-mouse chimera EL; Human-Mouse chimeric EL
T1 chain: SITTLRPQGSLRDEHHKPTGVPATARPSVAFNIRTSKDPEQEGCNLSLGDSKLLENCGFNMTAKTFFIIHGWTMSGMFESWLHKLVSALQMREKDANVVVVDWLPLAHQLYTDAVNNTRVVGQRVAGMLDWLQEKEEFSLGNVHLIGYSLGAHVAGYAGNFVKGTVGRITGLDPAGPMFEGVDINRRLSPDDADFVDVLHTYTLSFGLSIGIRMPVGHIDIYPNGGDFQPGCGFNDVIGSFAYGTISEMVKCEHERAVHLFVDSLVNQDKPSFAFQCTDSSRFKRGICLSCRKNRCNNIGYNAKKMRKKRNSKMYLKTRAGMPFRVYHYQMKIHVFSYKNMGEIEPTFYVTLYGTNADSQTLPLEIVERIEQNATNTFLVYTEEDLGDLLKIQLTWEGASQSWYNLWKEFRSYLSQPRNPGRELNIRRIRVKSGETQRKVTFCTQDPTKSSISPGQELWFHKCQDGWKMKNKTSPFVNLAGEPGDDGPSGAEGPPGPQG

T2: rabbit EL-C2 tag (rabbit)
T2 construct: used as cell lysate or heparin extract; also called rabbit EL lysate; rabbit EL enzyme solution
T2 chain: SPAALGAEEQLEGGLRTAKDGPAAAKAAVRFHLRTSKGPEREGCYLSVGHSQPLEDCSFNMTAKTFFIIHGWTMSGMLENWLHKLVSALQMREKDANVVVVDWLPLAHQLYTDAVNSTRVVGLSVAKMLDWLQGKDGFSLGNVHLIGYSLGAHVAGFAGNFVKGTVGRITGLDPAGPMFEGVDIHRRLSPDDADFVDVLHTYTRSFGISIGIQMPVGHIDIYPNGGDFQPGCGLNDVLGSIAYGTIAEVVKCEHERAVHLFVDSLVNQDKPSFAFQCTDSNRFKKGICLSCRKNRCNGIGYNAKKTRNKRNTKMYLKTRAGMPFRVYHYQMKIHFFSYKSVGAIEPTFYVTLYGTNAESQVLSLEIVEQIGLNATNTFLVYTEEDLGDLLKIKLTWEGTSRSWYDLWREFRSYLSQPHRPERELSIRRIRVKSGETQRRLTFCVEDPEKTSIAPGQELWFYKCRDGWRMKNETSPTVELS

T3: Baboon EL-C2 tag (baboon, UniProt Q9Y5X9 21-500 (human entry), limits assumed)
T3 construct: used as heparin extract of transfected HEK293F cells; also called baboon EL heparin extract
T3 chain: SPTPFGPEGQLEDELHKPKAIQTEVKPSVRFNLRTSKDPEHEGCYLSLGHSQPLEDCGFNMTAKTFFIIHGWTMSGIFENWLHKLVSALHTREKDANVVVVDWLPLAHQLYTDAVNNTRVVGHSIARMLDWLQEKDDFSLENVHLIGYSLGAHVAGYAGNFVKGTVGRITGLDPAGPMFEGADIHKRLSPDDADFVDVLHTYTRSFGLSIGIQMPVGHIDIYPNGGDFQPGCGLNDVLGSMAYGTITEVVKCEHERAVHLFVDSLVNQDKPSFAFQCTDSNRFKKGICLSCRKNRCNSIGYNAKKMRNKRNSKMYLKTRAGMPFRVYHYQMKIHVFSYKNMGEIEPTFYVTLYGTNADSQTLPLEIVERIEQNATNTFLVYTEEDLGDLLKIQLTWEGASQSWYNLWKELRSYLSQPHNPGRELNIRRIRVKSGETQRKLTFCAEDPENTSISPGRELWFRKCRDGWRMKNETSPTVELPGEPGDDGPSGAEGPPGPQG

T4: cynomolgus monkey EL-C2 tag (cynomolgus monkey, UniProt Q9Y5X9 21-500 (human entry), limits assumed)
T4 construct: used as heparin extract of transfected HEK293F cells; also called cynomolgus EL
T4 chain: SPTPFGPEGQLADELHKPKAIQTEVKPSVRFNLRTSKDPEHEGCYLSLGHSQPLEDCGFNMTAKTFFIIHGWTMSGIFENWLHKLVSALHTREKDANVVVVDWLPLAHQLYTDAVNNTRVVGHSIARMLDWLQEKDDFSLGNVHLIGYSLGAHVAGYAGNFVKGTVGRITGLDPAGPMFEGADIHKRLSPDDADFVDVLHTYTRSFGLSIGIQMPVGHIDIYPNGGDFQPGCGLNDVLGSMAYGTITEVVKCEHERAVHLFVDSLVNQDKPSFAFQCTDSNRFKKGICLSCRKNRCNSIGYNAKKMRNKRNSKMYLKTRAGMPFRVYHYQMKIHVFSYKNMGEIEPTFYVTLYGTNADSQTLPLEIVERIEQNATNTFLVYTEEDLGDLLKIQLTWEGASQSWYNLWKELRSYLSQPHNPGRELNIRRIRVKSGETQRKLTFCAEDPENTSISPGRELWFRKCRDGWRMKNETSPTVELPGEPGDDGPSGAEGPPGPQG

T5: human EL-411-459 fragment (human)
T5 construct: Used as HEK293 lysate
T5 chain: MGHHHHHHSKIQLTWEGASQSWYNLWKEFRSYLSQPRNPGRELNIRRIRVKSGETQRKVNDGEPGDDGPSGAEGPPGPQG


Key:
[1] = molecular target: T1, human EL[331-459]-mouse EL-C2 tag; assay: ELISA-type titration, A450 against antibody concentration; protocol not described in the text
[2] = molecular target: T2, rabbit EL-C2 tag; assay: as above
[3] = molecular target: T3, Baboon EL-C2 tag; assay: as above
[4] = molecular target: T4, cynomolgus monkey EL-C2 tag; assay: as above
[5] = molecular target: T1, human EL[331-459]-mouse EL-C2 tag; assay: cell-based or functional assay
[6] = molecular target: T2, rabbit EL-C2 tag; assay: cell-based or functional assay
[7] = molecular target: T3, Baboon EL-C2 tag; assay: cell-based or functional assay
[8] = molecular target: T4, cynomolgus monkey EL-C2 tag; assay: cell-based or functional assay
[9] = molecular target: T3, Baboon EL-C2 tag; assay: Biacore SPR; EL heparin extract captured by anti-C2-tag antibody on CM5, antibody as analyte, bivalent fit
Description: (§1) The binding affinities of anti-EL antibodies were measured using Biacore. Anti-C2-tag antibody was immobilized on a sensor chip CM5 (GE HealthCare) using amine-coupling and baboon EL heparin extract or cynomolgus monkey heparin extract diluted with HBS-P (GE Healthcare) was added and EL were captured on the sensor chip. Then anti-EL antibodies diluted with HBS-P were added and the binding affinities were calculated by bivalent fitting of BIAevaluation software (FIG. 9A-G).

[10] = molecular target: T4, cynomolgus monkey EL-C2 tag; assay: as above
Description: as §1

[11] = molecular target: T3, Baboon EL-C2 tag; assay: Biacore SPR; EL captured by anti-C2-tag antibody, antibody as analyte, bivalent fit; column head prints nM, kd/ka gives M
Description: as §1

[12] = molecular target: T4, cynomolgus monkey EL-C2 tag; assay: as above
Description: as §1

[13] = molecular target: T5, human EL-411-459 fragment; assay: sandwich ELISA with human EL fragment lysate, as Example 10
[14] = molecular target: T2, rabbit EL-C2 tag; assay: ELISA-type titration, A450 against antibody concentration; protocol not described in the text
[15] = molecular target: T4, cynomolgus monkey EL-C2 tag; assay: as above
[16] = molecular target: T1, human EL[331-459]-mouse EL-C2 tag; assay: as above
[17] = molecular target: T2, rabbit EL-C2 tag; assay: as above
[18] = molecular target: T3, Baboon EL-C2 tag; assay: as above
[19] = molecular target: T4, cynomolgus monkey EL-C2 tag; assay: as above
[20] = molecular target: T2, rabbit EL-C2 tag; assay: as above
[21] = molecular target: T3, Baboon EL-C2 tag; assay: as above
[22] = molecular target: T4, cynomolgus monkey EL-C2 tag; assay: as above

Neutralizing activity_IC50 [5] [nM]	Neutralizing activity_IC50 [6] [nM]	Neutralizing activity_IC50 [7] [nM]	Neutralizing activity_IC50 [8] [nM]	koff [9] [s⁻¹]	kon [9] [M⁻¹ s⁻¹]	koff [10] [s⁻¹]	kon [10] [M⁻¹ s⁻¹]	Kd [11] [nM]	Kd [12] [nM]	binding result [13]	Binder	also measured
6.9	85	5.7	4.2	0.00016	250000	9.4e-05	160000	0.64	0.59	no binding	25E4 antibody (antibody, IgG2b, V domains shown) VH: QVALKESGPGILQPSQTLSLTCSFSGFSLSTSGMGVGWIRQPSGKGLEWLAHIWWHGNKYYSTALKSRLTISKDTSNNQVFLKIASVDTADTATYYCARISDGYPLDYWGQGTSVTVSS VL: DIQMTQSPSSLSASLGGKVTITCKASQDINKYIVWYQQKPGKGPRLLIHYTSTLQPGFPSRFSGSGSGRDYSLSITNLEPEDIATYYCLQYDNLLWTFGGGTKLEIK	EC50 (read off the curve) [1]: ~0.02 µg/mL; EC50 (read off the curve) [2]: ~0.01 µg/mL; EC50 (read off the curve) [3]: ~0.02 µg/mL; EC50 (read off the curve) [4]: ~0.007 µg/mL
6.1	69	6.2	6.2	0.00012	120000	0.00039	140000	1	2.8	binds	16A11 antibody (antibody, IgG1, V domains shown) VH: QVTLKESGPGILQPSQTLSLTCSFSGFSLSTSGMGVGWVRQPSGKGLEWLAHIWWNDYYYYKTALKSRLTISKDTSNNQVFLKIASVDTVDTATYYCARMAPGTPFPSWGQGTLVTVSA VL: DIQMTQSPSSLSASLGGKVTITCKASQDINRYIAWYQHKPGKGPRLLIHYTSTLQPGIPSRFSGSGSGRDYSFSISNLEPEDIATYYCLQYDILLWTFGGGTKLEIK	EC50 (read off the curve) [14]: ~0.04 µg/mL; EC50 (read off the curve) [15]: ~0.02 µg/mL
18	207	6.6	6.2	0.00014	93000	9.9e-05	180000	1.5	0.55	binds	3B1 antibody (antibody, IgG1, V domains shown) VH: QVTLKESGPGILQPSQTLSLTCSFSGFSLSTSGVGVGWIRQPSGKGLEWLAHIWWNDNKYYNTALKSRLTISKDTSNNQVFLKIASVDTADTATYFCARSYDGYPFDYWGQGTLVTVSA VL: DIQMTQSPSSLSASLGGKVTITCKASQDINKYIVWYQHKPGKGPRLLIHHTSTLQPGIPSRFSESGSGRDYSFSISNLEPEDIASYYCLQYDTLLWTFGGGTKLEIR	EC50 (read off the curve) [16]: ~0.03 µg/mL; EC50 (read off the curve) [17]: ~0.02 µg/mL; EC50 (read off the curve) [18]: ~0.02 µg/mL; EC50 (read off the curve) [19]: ~0.006 µg/mL
–	98	4.8	3	0.00021	140000	0.00014	140000	~1.5	1	–	8F5 antibody (antibody, IgG2a, V domains shown) VH: QVTLKESGPGILQPSQTLSLTCSFSGFSLSTSNMGVGWIRQPSGKGLEWLAHIWWNDYKYYNTALKSRLTISKDTSNNQVFLKIASLDTADTATYYCARIGGGTPLDYWGQGTSLTVSS VL: DIQMAQSPSSLSASLGGKVTITCKASQDIHTYIAWYQHKPGKGPRLLMLYTSTLQPGIPSRFSGSGSGRDYSFSISNLEPEDIATYYCLQYDDLLWTFGGGTKLEIK	EC50 (read off the curve) [20]: ~0.01 µg/mL; EC50 (read off the curve) [21]: ~0.01 µg/mL; EC50 (read off the curve) [22]: ~0.005 µg/mL
